Publication PMC6156764

biological target: endogenous TEA domain protein (TEAD), detected with a pan-TEAD antibody, P28347; assay: co-immunoprecipitation (α-Flag) with western blot quantification; conditions: chain shown with the change; lysates of transiently transfected HeLa cells; n = 3; parent: est. 1.0; read off a plot
Sequence (P28347 whole entry, the tested form may be a part): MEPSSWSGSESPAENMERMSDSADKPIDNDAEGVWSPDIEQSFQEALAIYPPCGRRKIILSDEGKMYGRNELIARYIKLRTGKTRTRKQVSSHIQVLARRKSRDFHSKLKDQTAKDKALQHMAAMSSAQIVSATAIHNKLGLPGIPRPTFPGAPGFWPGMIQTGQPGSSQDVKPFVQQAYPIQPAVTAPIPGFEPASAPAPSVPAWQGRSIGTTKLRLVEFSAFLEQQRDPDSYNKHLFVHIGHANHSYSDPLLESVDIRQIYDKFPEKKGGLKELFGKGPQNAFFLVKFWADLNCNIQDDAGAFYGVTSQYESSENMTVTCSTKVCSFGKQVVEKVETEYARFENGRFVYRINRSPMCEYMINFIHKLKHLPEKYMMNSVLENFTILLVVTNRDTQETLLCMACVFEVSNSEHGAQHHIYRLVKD

Binder	ratio to parent
Flag-tagged wild-type GBP-1 fragment α7–13 (residues 311–582), P32455 K390A; K391A; R392A; D393A; D394A; F395A; C396A (protein) CMENAVLALAQIENSAAVQKAIAHYEQQMGQKVQLPTETLQELLDLHRDSEREAIEVFIRSSFKDVDHLFQKELAAQLEAAAAAAAKQNQEASSDRCSALLQVIFSPLEEEVKAGIYSKPGGYRLFVQKLQDLKKKYYEEPRKGIQAEEILQTYLKSKESMTDAILQTDQTLTEKEKEIEVERVKAESAQASAKMLQEMQRKNEQMMEQKERSYQEHLKQLTEKMENDRVQLLKEQERTLALKLQEQEQLLKEGFQKESRIMKNEIQDLQTK	1.6
Flag-tagged wild-type GBP-1 fragment α7–13 (residues 311–582), P32455 K397A; Q398A; N399A; Q400A; E401A; S403A (protein) CMENAVLALAQIENSAAVQKAIAHYEQQMGQKVQLPTETLQELLDLHRDSEREAIEVFIRSSFKDVDHLFQKELAAQLEKKRDDFCAAAAAAASDRCSALLQVIFSPLEEEVKAGIYSKPGGYRLFVQKLQDLKKKYYEEPRKGIQAEEILQTYLKSKESMTDAILQTDQTLTEKEKEIEVERVKAESAQASAKMLQEMQRKNEQMMEQKERSYQEHLKQLTEKMENDRVQLLKEQERTLALKLQEQEQLLKEGFQKESRIMKNEIQDLQTK	1.7
Flag-tagged wild-type GBP-1 fragment α7–13 (residues 311–582), P32455 L418A; E419A; E420A; E421A; V422A; K423A (protein) CMENAVLALAQIENSAAVQKAIAHYEQQMGQKVQLPTETLQELLDLHRDSEREAIEVFIRSSFKDVDHLFQKELAAQLEKKRDDFCKQNQEASSDRCSALLQVIFSPAAAAAAAGIYSKPGGYRLFVQKLQDLKKKYYEEPRKGIQAEEILQTYLKSKESMTDAILQTDQTLTEKEKEIEVERVKAESAQASAKMLQEMQRKNEQMMEQKERSYQEHLKQLTEKMENDRVQLLKEQERTLALKLQEQEQLLKEGFQKESRIMKNEIQDLQTK	0.95
Flag-tagged wild-type GBP-1 fragment α7–13 (residues 311–582), P32455 E383A; L384A; Q387A; L388A; E389A (protein) CMENAVLALAQIENSAAVQKAIAHYEQQMGQKVQLPTETLQELLDLHRDSEREAIEVFIRSSFKDVDHLFQKAAAAAAAKKRDDFCKQNQEASSDRCSALLQVIFSPLEEEVKAGIYSKPGGYRLFVQKLQDLKKKYYEEPRKGIQAEEILQTYLKSKESMTDAILQTDQTLTEKEKEIEVERVKAESAQASAKMLQEMQRKNEQMMEQKERSYQEHLKQLTEKMENDRVQLLKEQERTLALKLQEQEQLLKEGFQKESRIMKNEIQDLQTK	1.6
Flag-tagged wild-type GBP-1 fragment α7–13 (residues 311–582), P32455 L411A; Q412A; V413A; I414A; F415A; S416A; P417A (protein) CMENAVLALAQIENSAAVQKAIAHYEQQMGQKVQLPTETLQELLDLHRDSEREAIEVFIRSSFKDVDHLFQKELAAQLEKKRDDFCKQNQEASSDRCSALAAAAAAALEEEVKAGIYSKPGGYRLFVQKLQDLKKKYYEEPRKGIQAEEILQTYLKSKESMTDAILQTDQTLTEKEKEIEVERVKAESAQASAKMLQEMQRKNEQMMEQKERSYQEHLKQLTEKMENDRVQLLKEQERTLALKLQEQEQLLKEGFQKESRIMKNEIQDLQTK	1.2
Flag-tagged wild-type GBP-1 fragment α7–13 (residues 311–582), P32455 V376A; D377A; H378A; L379A; F380A; Q381A; K382A (protein) CMENAVLALAQIENSAAVQKAIAHYEQQMGQKVQLPTETLQELLDLHRDSEREAIEVFIRSSFKDAAAAAAAELAAQLEKKRDDFCKQNQEASSDRCSALLQVIFSPLEEEVKAGIYSKPGGYRLFVQKLQDLKKKYYEEPRKGIQAEEILQTYLKSKESMTDAILQTDQTLTEKEKEIEVERVKAESAQASAKMLQEMQRKNEQMMEQKERSYQEHLKQLTEKMENDRVQLLKEQERTLALKLQEQEQLLKEGFQKESRIMKNEIQDLQTK	0.37
Flag-tagged wild-type GBP-1 fragment α7–13 (residues 311–582), P32455 S404A; D405A; R406A; C407A; S408A; L410A (protein) CMENAVLALAQIENSAAVQKAIAHYEQQMGQKVQLPTETLQELLDLHRDSEREAIEVFIRSSFKDVDHLFQKELAAQLEKKRDDFCKQNQEASAAAAAAALQVIFSPLEEEVKAGIYSKPGGYRLFVQKLQDLKKKYYEEPRKGIQAEEILQTYLKSKESMTDAILQTDQTLTEKEKEIEVERVKAESAQASAKMLQEMQRKNEQMMEQKERSYQEHLKQLTEKMENDRVQLLKEQERTLALKLQEQEQLLKEGFQKESRIMKNEIQDLQTK	1.1
